Data published in US20250295794A1 (Memorial Sloan Kettering, published 2025).

How the values were obtained:
[1] = HPLC after single-step affinity purification; main peak at about 16 min is the self-assembled tetramer (self-association through the p63 SADA domain)
[2] = target: the molecule itself; assay: fluorescence correlation spectroscopy; dissociation of the self-assembled multimer after dilution from 500 nM to 0.5 nM, Cy3-175Lu-Bn-DOTA label, one-phase decay fit
Text: (§1) FIG. 4 depicts a summary of fluorescence correlation spectroscopy (FCS) experiment regarding the SADA domains used here. […] Measurements were taken with a Zeiss LSM 880 confocal microscope. Normalized autocorrelations functions G(T) were then plotted to determine the diffusion times for each SADA-BiDE over time. All samples were compared against a monomeric anti-GD2 BiDE.

[3] = target: the molecule itself; assay: fluorescence correlation spectroscopy; half-life of multimer dissociation, one-phase decay fit
Text: as §1

[4] = HPLC after single-step affinity purification; main peak at about 16 min is the self-assembled tetramer (self-association through the p73 SADA domain)
[5] = target: T1, IL-15 polypeptide (Homo sapiens (Human), UniProt P40933 49-162); assay: production of the SADA-Cytokine complex; no direct binding assay described
T1 construct: also called sIL15; soluble IL15

[6] = target: the molecule itself; assay: HPLC, traces normalized to peak intensity; main peak is the self-assembled multimer
[7] = HPLC after single-step affinity purification; main peak at about 16 min is the self-assembled tetramer (self-association through the p53 SADA domain)

T1 sequence (P40933 49-162 limits assumed): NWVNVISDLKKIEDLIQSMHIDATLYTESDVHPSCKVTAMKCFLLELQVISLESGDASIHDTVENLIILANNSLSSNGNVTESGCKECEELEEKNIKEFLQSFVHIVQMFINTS

B1: P63-BiDE (hu3F8-scFv, huC825-scFv, huP63-tet, GS linker, IgG3 spacer) (bispecific antibody)
chain: EIVMTQTPATLSVSAGERVTITCKASQSVSNDVTWYQQKPGQAPRLLIYSASNRYSGVPARFSGSGYGTEFTFTISSVQSEDFAVYFCQQDYSSFGCGTKLEIKRGGGGSGGGGSGGGGSGGGGSGGGGSGGGGSQVQLVESGPGVVQPGRSLRISCAVSGFSVTNYGVHWVRQPPGKCLEWLGVIWAGGITNYNSAFMSRLTISKDNSKNTVYLQMNSLRAEDTAMYYCASRGGHYGYALDYWGQGTLVTVSSGGGGSGGGGSGGGGSGGGGSHVQLVESGGGLVQPGGSLRLSCAASGFSLTDYGVHWVRQAPGKGLEWLGVIWSGGGTAYNTALISRFTISRDNSKNTLYLQMNSLRAEDTAVYYCARRGSYPYNYFDAWGCGTLVTVSSGGGGSGGGGSGGGGSQAVVTQEPSLTVSPGGTVTLTCGSSTGAVTASNYANWVQQKPGQCPRGLIGGHNNRPPGVPARFSGSLLGGKAALTLLGAQPEDEAEYYCALWYSDHWVIGGGTKLTVLGTPLGDTTHTSGRSPDDELLYLPVRGRETYEMLLKIKESLELMQYLPQHTIETYRQQQQQQHQHLLQKQGGSGGAPHHHHHH
notes: Self-assembles into a homo-tetramer of about 200 kDa; also called p63 SADA-BiDE
Question: For B1, which “% tetramer (HPLC purity, main peak)” value [1] is on record?
Answer: Its value is 89.2%.

Question: And the koff [2]?
Answer: Its koff is 6.3e-05 s⁻¹.

Question: What about the half-life [3] of the same binder?
Answer: The half-life was 3.08 h.

B2: P73-BiDE (hu3F8-scFv, huC825-scFv, huP73-tet, GS linker, IgG3 spacer) (bispecific antibody)
chain: EIVMTQTPATLSVSAGERVTITCKASQSVSNDVTWYQQKPGQAPRLLIYSASNRYSGVPARFSGSGYGTEFTFTISSVQSEDFAVYFCQQDYSSFGCGTKLEIKRGGGGSGGGGSGGGGSGGGGSGGGGSGGGGSQVQLVESGPGVVQPGRSLRISCAVSGFSVTNYGVHWVRQPPGKCLEWLGVIWAGGITNYNSAFMSRLTISKDNSKNTVYLQMNSLRAEDTAMYYCASRGGHYGYALDYWGQGTLVTVSSGGGGSGGGGSGGGGSGGGGSHVQLVESGGGLVQPGGSLRLSCAASGFSLTDYGVHWVRQAPGKGLEWLGVIWSGGGTAYNTALISRFTISRDNSKNTLYLQMNSLRAEDTAVYYCARRGSYPYNYFDAWGCGTLVTVSSGGGGSGGGGSGGGGSQAVVTQEPSLTVSPGGTVTLTCGSSTGAVTASNYANWVQQKPGQCPRGLIGGHNNRPPGVPARFSGSLLGGKAALTLLGAQPEDEAEYYCALWYSDHWVIGGGTKLTVLGTPLGDTTHTSGRHGDEDTYYLQVRGRENFEILMKLKESLELMELVPQPLVDSYRQQQQLLQRPGGSGGAPHHHHHH
notes: Self-assembles into a homo-tetramer of about 200 kDa; also called p73 SADA-BiDE
Question: Which results are given for B2?
Answer: koff [2]: 9.5e-05 s⁻¹; % tetramer (HPLC purity, main peak) [4]: 90.2%; half-life [3]: 2.03 h

B3: P53-Cytokine polypeptide (IL15Rα, huP53-tet, IgG3 spacer) (other)
chain: ITCPPPMSVEHADIWVKSYSLYSRERYICNSGFKRKAGTSSLTECVLNKATNVAHWTTPSLKCIRTPLGDTTHTSGKPLDGEYFTLQIRGRERFEMFRELNEALELKDAQAGKEPGGSGGAPHHHHHH
notes: The full complex is described as 8 pairs of IL15Rα/IL15 (about 200 kDa); also called SADA-Cytokine
Question: Does B3 bind [5]?
Answer: Result: binds

Question: Does B3 bind [6]?
Answer: Result: binds

B4: P63-Cytokine polypeptide (IL15Rα, huP63-tet, IgG3 spacer) (other)
chain: ITCPPPMSVEHADIWVKSYSLYSRERYICNSGFKRKAGTSSLTECVLNKATNVAHWTTPSLKCIRTPLGDTTHTSGRSPDDELLYLPVRGRETYEMLLKIKESLELMQYLPQHTIETYRQQQQQQHQHLLQKQGGSGGAPHHHHHH
notes: The full complex is described as 8 pairs of IL15Rα/IL15; also called SADA-Cytokine
Question: Does B4 bind [5]?
Answer: Result: binds

Question: Does B4 bind [6]?
Answer: Result: binds

B5: P53-BiDE (hu3F8-scFv, huC825-scFv, huP53-tet, GS linker, IgG3 spacer) (bispecific antibody)
chain: EIVMTQTPATLSVSAGERVTITCKASQSVSNDVTWYQQKPGQAPRLLIYSASNRYSGVPARFSGSGYGTEFTFTISSVQSEDFAVYFCQQDYSSFGCGTKLEIKRGGGGSGGGGSGGGGSGGGGSGGGGSGGGGSQVQLVESGPGVVQPGRSLRISCAVSGFSVTNYGVHWVRQPPGKCLEWLGVIWAGGITNYNSAFMSRLTISKDNSKNTVYLQMNSLRAEDTAMYYCASRGGHYGYALDYWGQGTLVTVSSGGGGSGGGGSGGGGSGGGGSHVQLVESGGGLVQPGGSLRLSCAASGFSLTDYGVHWVRQAPGKGLEWLGVIWSGGGTAYNTALISRFTISRDNSKNTLYLQMNSLRAEDTAVYYCARRGSYPYNYFDAWGCGTLVTVSSGGGGSGGGGSGGGGSQAVVTQEPSLTVSPGGTVTLTCGSSTGAVTASNYANWVQQKPGQCPRGLIGGHNNRPPGVPARFSGSLLGGKAALTLLGAQPEDEAEYYCALWYSDHWVIGGGTKLTVLGTPLGDTTHTSGKPLDGEYFTLQIRGRERFEMFRELNEALELKDAQAGKEPGGSGGAPHHHHHH
notes: Self-assembles into a homo-tetramer of about 200 kDa; Its targets GD2 (ganglioside) and Bn-DOTA (hapten) are not proteins; only the self-association is recorded; also called p53 SADA-BiDE
Question: With B5 as the binder, how does the koff [2] read?
Answer: Its koff is 0.000112 s⁻¹.

Question: And the half-life [3]?
Answer: Its half-life is 1.73 h.

Question: And the “% tetramer (HPLC purity, main peak)” value [7]?
Answer: The value was 94.4%.

B6: P73-Cytokine polypeptide (IL15Rα, huP73-tet, IgG3 spacer) (other)
chain: ITCPPPMSVEHADIWVKSYSLYSRERYICNSGFKRKAGTSSLTECVLNKATNVAHWTTPSLKCIRTPLGDTTHTSGRHGDEDTYYLQVRGRENFEILMKLKESLELMELVPQPLVDSYRQQQQLLQRPGGSGGAPHHHHHH
notes: as for B4
Question: Does B6 bind [5]?
Answer: Result: binds

Question: Does B6 bind [6]?
Answer: Result: binds
